Measurements reported in US20150344570A1 (published 2015).

B1: GpH7-B3 variant S324_11K/GpL16-k0 (antibody, human IgG1, kappa)
heavy: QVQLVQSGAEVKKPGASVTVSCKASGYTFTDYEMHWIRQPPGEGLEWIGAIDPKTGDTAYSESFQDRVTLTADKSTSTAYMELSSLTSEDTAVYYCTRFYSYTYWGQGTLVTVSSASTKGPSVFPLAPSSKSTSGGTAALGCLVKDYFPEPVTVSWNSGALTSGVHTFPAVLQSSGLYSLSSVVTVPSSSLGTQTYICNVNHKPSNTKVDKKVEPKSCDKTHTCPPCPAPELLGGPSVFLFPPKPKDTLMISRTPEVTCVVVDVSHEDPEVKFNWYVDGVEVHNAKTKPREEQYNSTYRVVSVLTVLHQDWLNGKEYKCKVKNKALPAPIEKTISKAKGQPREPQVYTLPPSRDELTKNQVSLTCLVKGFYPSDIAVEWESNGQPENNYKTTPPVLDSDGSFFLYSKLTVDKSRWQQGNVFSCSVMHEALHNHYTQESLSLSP
light: DIVMTQSPLSLPVTPGEPASISCQASESLVHSNRNTYLHWYLQKPGQSPQLLIYKVSNRFSGVPDRFSGSGSGTDFTLKISRVEAEDVGVYYCSQNTHVPPTFGQGTKVEIERTVAAPSVFIFPPSDEQLKSGTASVVCLLNNFYPREAKVQWKVDNALQSGNSQESVTEQDSKDSTYSLSSTLTLSKADYEKHKVYACEVTHQGLSSPVTKSFNRGEC
notes: also called Ho Ab S324_11K
B2: GpH7-B3 variant T335_04F/GpL16-k0 (antibody, human IgG1, kappa)
heavy: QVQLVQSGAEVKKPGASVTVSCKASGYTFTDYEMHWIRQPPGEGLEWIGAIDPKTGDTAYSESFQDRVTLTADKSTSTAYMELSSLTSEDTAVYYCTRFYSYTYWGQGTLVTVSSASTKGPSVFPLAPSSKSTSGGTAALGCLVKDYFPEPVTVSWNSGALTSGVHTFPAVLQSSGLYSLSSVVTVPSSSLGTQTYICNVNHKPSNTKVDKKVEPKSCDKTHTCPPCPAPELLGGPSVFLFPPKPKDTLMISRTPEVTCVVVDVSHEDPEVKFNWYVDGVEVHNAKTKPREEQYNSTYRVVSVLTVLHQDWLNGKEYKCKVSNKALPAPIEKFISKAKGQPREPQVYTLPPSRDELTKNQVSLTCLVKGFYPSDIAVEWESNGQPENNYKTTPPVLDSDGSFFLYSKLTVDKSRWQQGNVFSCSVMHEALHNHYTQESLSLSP
light: B1 light
notes: also called Ho Ab T335_04F
B3: GpH7-B3 variant S337_02A/GpL16-k0 (antibody, human IgG1, kappa)
heavy: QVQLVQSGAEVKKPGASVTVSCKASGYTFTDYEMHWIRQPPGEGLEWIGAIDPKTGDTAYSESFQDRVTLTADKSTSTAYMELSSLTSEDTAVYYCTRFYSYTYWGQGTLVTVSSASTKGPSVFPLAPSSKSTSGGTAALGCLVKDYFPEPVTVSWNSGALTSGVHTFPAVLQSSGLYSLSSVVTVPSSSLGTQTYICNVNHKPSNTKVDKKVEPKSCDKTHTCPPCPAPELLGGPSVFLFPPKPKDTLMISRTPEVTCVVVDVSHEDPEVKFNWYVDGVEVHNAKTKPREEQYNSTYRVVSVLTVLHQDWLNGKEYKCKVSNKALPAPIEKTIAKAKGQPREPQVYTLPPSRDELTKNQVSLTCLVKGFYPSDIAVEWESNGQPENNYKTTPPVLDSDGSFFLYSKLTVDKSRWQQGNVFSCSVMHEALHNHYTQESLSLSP
light: B1 light
notes: also called Ho Ab S337_02A
B4: GpH7-B3 variant S324_15Y/GpL16-k0 (antibody, human IgG1, kappa)
heavy: not shown
light: B1 light
notes: also called Ho Ab S324_15Y
B5: GpH7-B3 variant S324_16H/GpL16-k0 (antibody, human IgG1, kappa)
heavy: not shown
light: B1 light
notes: also called Ho Ab S324_16H
B6: GpH7-B3 variant S337_10E/GpL16-k0 (antibody, human IgG1, kappa)
heavy: not shown
light: B1 light
notes: also called Ho Ab S337_10E
B7: GpH7-B3 variant V266_19Q/GpL16-k0 (antibody, human IgG1, kappa)
heavy: not shown
light: B1 light
notes: also called Ho Ab V266_19Q
B8: GpH7-B3 variant T335_05P/GpL16-k0 (antibody, human IgG1, kappa)
heavy: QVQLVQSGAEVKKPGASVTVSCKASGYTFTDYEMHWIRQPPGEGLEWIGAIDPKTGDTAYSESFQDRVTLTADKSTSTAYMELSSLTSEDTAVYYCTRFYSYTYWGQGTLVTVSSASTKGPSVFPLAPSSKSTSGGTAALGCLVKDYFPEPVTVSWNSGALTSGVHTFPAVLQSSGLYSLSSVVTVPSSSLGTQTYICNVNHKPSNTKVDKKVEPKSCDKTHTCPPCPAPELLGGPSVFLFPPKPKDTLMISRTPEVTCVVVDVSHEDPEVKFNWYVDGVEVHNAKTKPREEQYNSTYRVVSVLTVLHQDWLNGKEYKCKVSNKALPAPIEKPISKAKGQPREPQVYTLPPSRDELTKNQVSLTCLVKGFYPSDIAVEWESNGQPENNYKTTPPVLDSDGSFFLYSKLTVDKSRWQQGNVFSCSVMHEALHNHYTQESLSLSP
light: B1 light
notes: also called Ho Ab T335_05P
B9: GpH7-B3 variant T335_07I/GpL16-k0 (antibody, human IgG1, kappa)
heavy: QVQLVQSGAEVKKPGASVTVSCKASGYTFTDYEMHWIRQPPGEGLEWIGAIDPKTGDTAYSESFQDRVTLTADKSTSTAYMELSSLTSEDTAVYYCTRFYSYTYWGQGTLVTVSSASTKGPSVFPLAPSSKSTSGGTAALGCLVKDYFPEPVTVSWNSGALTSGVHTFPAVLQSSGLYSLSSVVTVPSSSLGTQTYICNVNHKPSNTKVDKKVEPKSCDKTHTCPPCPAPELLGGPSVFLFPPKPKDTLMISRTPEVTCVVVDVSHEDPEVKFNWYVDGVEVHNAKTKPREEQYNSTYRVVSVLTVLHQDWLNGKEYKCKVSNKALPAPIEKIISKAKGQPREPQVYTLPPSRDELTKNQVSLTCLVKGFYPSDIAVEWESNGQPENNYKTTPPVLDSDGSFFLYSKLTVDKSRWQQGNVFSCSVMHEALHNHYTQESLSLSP
light: B1 light
notes: also called Ho Ab T335_07I
B10: GpH7-B3 variant S337_12R/GpL16-k0 (antibody, human IgG1, kappa)
heavy: not shown
light: B1 light
notes: also called Ho Ab S337_12R
B11: GpH7-B3 variant S337_08L/GpL16-k0 (antibody, human IgG1, kappa)
heavy: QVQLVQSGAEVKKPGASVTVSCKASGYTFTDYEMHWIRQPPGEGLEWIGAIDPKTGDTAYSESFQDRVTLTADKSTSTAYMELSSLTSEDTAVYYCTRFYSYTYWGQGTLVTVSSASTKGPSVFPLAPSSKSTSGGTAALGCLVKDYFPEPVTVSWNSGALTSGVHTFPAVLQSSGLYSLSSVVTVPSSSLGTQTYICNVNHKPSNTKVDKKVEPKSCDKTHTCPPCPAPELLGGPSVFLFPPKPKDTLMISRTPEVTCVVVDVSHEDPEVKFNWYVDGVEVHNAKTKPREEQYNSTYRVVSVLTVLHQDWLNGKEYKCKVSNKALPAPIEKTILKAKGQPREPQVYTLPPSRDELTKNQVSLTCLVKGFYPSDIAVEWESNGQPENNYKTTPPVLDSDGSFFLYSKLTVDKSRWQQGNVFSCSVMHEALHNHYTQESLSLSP
light: B1 light
notes: also called Ho Ab S337_08L
B12: GpH7-B3 variant S337_01G/GpL16-k0 (antibody, human IgG1, kappa)
heavy: not shown
light: B1 light
notes: also called Ho Ab S337_01G
B13: GpH7-B3 variant S337_07I/GpL16-k0 (antibody, human IgG1, kappa)
heavy: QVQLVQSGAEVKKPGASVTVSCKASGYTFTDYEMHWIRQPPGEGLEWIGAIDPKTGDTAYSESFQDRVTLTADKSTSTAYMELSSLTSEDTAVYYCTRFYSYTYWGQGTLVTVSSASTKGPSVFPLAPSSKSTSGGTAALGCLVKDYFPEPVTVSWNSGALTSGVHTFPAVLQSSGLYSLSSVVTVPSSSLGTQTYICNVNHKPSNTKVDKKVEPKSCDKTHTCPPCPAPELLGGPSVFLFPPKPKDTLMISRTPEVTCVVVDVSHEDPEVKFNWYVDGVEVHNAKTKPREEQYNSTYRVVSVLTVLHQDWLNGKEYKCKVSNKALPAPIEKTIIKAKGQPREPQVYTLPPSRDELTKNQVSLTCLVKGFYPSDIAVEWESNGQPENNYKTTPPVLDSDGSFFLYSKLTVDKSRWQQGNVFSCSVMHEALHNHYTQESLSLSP
light: B1 light
notes: also called Ho Ab S337_07I
B14: GpH7-B3 variant S324_19Q/GpL16-k0 (antibody, human IgG1, kappa)
heavy: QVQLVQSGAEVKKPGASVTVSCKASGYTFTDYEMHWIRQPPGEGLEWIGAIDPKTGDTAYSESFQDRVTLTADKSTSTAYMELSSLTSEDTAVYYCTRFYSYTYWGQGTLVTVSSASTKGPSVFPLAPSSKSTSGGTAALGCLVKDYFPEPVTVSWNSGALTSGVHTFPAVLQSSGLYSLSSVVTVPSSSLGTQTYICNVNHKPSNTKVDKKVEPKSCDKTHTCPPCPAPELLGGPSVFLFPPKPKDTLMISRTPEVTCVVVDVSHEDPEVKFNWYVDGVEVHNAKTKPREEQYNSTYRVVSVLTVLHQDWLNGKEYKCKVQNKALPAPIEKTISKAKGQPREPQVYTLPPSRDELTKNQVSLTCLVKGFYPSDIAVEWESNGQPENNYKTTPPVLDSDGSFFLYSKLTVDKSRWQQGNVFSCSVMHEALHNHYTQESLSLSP
light: B1 light
notes: also called Ho Ab S324_19Q
B15: GpH7-B3 variant Y300_12R/GpL16-k0 (antibody, human IgG1, kappa)
heavy: not shown
light: B1 light
notes: also called Ho Ab Y300_12R
B16: GpH7-B3 variant S324_18N/GpL16-k0 (antibody, human IgG1, kappa)
heavy: not shown
light: B1 light
notes: also called Ho Ab S324_18N
B17: GpH7-B3 variant S337_06M/GpL16-k0 (antibody, human IgG1, kappa)
heavy: not shown
light: B1 light
notes: also called Ho Ab S337_06M
B18: GpH7-B3 variant S337_20W/GpL16-k0 (antibody, human IgG1, kappa)
heavy: not shown
light: B1 light
notes: also called Ho Ab S337_20W
B19: GpH7-B3 variant S337_04F/GpL16-k0 (antibody, human IgG1, kappa)
heavy: not shown
light: B1 light
notes: also called Ho Ab S337_04F
B20: GpH7-B3 variant T335_10E/GpL16-k0 (antibody, human IgG1, kappa)
heavy: not shown
light: B1 light
notes: also called Ho Ab T335_10E
B21: GpH7-B3 variant T335_15Y/GpL16-k0 (antibody, human IgG1, kappa)
heavy: not shown
light: B1 light
notes: also called Ho Ab T335_15Y
B22: GpH7-B3 variant S324_12R/GpL16-k0 (antibody, human IgG1, kappa)
heavy: not shown
light: B1 light
notes: also called Ho Ab S324_12R
B23: GpH7-B3 variant S337_09D/GpL16-k0 (antibody, human IgG1, kappa)
heavy: not shown
light: B1 light
notes: also called Ho Ab S337_09D
B24: GpH7-B3 variant S337_15Y/GpL16-k0 (antibody, human IgG1, kappa)
heavy: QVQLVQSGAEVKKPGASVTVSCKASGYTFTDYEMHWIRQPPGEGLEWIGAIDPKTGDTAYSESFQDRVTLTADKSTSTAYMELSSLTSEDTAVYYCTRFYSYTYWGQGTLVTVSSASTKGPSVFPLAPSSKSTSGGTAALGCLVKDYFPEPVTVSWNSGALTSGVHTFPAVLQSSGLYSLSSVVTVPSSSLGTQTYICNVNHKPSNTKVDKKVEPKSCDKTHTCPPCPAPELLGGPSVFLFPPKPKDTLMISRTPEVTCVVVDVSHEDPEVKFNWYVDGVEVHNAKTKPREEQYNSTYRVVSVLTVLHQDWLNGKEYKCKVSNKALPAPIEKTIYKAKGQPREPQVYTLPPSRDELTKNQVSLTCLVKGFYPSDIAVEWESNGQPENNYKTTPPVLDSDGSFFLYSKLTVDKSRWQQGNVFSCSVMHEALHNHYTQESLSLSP
light: B1 light
notes: also called Ho Ab S337_15Y
B25: GpH7-B3 variant S324_14T/GpL16-k0 (antibody, human IgG1, kappa)
heavy: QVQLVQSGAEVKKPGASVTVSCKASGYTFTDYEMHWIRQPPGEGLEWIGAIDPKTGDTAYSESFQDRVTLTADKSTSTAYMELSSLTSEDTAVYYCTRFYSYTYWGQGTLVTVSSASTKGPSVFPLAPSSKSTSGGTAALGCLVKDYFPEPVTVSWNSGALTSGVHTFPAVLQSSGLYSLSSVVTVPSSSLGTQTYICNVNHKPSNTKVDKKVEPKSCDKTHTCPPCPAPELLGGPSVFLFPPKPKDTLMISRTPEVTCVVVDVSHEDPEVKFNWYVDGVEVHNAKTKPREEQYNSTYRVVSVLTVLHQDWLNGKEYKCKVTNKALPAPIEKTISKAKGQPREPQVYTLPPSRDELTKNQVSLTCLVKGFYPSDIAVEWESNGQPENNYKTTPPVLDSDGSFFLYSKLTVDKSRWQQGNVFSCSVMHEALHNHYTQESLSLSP
light: B1 light
notes: also called Ho Ab S324_14T
B26: GpH7-B3 variant T335_09D/GpL16-k0 (antibody, human IgG1, kappa)
heavy: not shown
light: B1 light
notes: also called Ho Ab T335_09D
B27: GpH7-B3 variant S337_03V/GpL16-k0 (antibody, human IgG1, kappa)
heavy: not shown
light: B1 light
notes: also called Ho Ab S337_03V
B28: GpH7-B3 variant T335_11K/GpL16-k0 (antibody, human IgG1, kappa)
heavy: not shown
light: B1 light
notes: also called Ho Ab T335_11K

Biological target: T1, FcγRIa (human, UniProt P12314 16-292)
T1 construct: extracellular domain; Soluble extracellular domain expressed in FreeStyle293 cells, used as analyte in Biacore; also called FcgRI; 1a; not shown: His tag attached to the C terminus
T1 sequence (P12314 16-292): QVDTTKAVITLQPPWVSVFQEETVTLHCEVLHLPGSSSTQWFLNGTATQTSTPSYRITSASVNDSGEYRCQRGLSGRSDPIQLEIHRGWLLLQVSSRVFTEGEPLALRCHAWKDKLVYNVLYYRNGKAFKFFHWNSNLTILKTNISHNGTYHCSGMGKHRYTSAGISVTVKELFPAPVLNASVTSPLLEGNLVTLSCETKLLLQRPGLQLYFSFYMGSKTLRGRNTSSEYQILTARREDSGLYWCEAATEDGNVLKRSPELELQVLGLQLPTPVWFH
Experiment: SPR (Biacore); Ho Ab vs HoCon Ab GpH7-B3/GpL16-k0
Experimental: Analysis of interaction between objective antibody and the FcγR was carried out using Biacore T100 (GE Healthcare). HBS-EP+ (GE Healthcare) was used as the running buffer, and the measurement temperature was set to 25° C. Chips produced by immobilizing the antigen peptide by the amine coupling method to a Series S Sencor Chip CM5 (GE Healthcare), or alternatively, chips produced by allowing preliminarily biotinylated antigen peptides to interact with and immobilize onto a Series S Sensor Chip SA (certified) (GE Healthcare) were used. Antibodies of interest were captured onto an antigen peptide-immobilized chip, and allowed to interact to each FcγR diluted with running buffer. To regenerate and repeatedly use the chip, the antibodies captured on the chip were washed off by reacting 10 mM glycine-HCl, pH 1.5.

Row | Ho/Con_1a | Binder
1 | 100 relative binding, control = 100 | B1
2 | 105 relative binding, control = 100 | B2
3 | 103 relative binding, control = 100 | B3
4 | 112 relative binding, control = 100 | B4
5 | 111 relative binding, control = 100 | B5
6 | 104 relative binding, control = 100 | B6
7 | 91.2 relative binding, control = 100 | B7
8 | 106 relative binding, control = 100 | B8
9 | 105 relative binding, control = 100 | B9
10 | 105 relative binding, control = 100 | B10
11 | 105 relative binding, control = 100 | B11
12 | 102 relative binding, control = 100 | B12
13 | 105 relative binding, control = 100 | B13
14 | 111 relative binding, control = 100 | B14
15 | 96.5 relative binding, control = 100 | B15
16 | 111 relative binding, control = 100 | B16
17 | 102 relative binding, control = 100 | B17
18 | 104 relative binding, control = 100 | B18
19 | 105 relative binding, control = 100 | B19
20 | 108 relative binding, control = 100 | B20
21 | 106 relative binding, control = 100 | B21
22 | 101 relative binding, control = 100 | B22
23 | 106 relative binding, control = 100 | B23
24 | 104 relative binding, control = 100 | B24
25 | 112 relative binding, control = 100 | B25
26 | 107 relative binding, control = 100 | B26
27 | 105 relative binding, control = 100 | B27
28 | 103 relative binding, control = 100 | B28
